Reference: CN117836321A

Biological target: VV B5单体蛋白 (Wyeth牛痘毒株的B5序列, C-末端AVI标签和HIS6标签) (牛痘病毒 Wyeth毒株)

B1: A048亲本抗B5 hIgG1 (antibody, V domains shown)
VH: QEQLEESGGGLVKPEGSLTLTCTASGFSFSSSYYMCWVRQAPGRGLEWIACIYTSSGSAYYANWAKGRFTISRTSSTTVTLQMTRLTAADTATYFCVRNAVGSSYYLYLWGPGTLVTVSS
VL: AQVLTQTPSPVSAAVGGTVTISCQASQSVAGNNYLSWYQQKPGQPPNLLIYSVSTLASGVPSRFKGSGSGTQFTLTISDLECDDAATYYCQGYYNDGIWAFGGGTEVVVK
- Kd: 9.5 nM
